Measurements reported in paper PMC5995387, “Binding of EphrinA5 to RET receptor tyrosine kinase: An in vitro study” (PLoS ONE, 2018).
Where “and” joins values, the source holds several entries; their conditions need not be identical. Equal entries are not always repeated.

What was measured:
[1] = target: EphA4 LBD (Homo sapiens) (UniProt P54764); assay: SPR; conditions: cited from earlier work
[2] = target: EphA3-Fc (Mus musculus) (UniProt P29319); conditions: cited from earlier work
[3] = target: T1, zebrafish GDNF family receptor alpha 1 extracellular domain (zGFRα1^ECD), Flag-His8-tagged (zebrafish (Danio rerio), UniProt Q98TT9 31-351); assay: native gel or EMSA; Blue Native PAGE, 4-20% gradient gel, Coomassie-stained; purified proteins mixed and incubated 30 min at room temperature, run at 4 °C; zefn-A5^ECD 8 μM, molar ratio 2:1:1:1:1 (zefn-A5^ECD:zRET^ECD:zGDNF:zGFRα1^ECD:mEphA4^LBD); band of the ternary complex checked by LC-MS/MS; conditions: both partners purified
T1 construct: GDNF family receptor alpha 1, zebrafish, extracellular domain, residues 31-351 of NCBI NP_571805.1; not shown: Flag, N-terminal, kept; His8, N-terminal, kept
T1 sequence (looked up): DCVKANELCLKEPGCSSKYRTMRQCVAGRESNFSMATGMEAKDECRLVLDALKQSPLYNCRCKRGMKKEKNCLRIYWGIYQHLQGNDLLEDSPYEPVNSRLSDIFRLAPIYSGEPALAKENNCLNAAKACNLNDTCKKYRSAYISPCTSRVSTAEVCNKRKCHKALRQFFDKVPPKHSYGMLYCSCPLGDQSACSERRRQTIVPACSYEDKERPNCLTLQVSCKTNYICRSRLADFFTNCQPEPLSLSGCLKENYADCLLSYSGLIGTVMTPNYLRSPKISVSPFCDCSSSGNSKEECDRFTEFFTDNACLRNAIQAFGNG

[4] = target: T2, zebrafish ephrinA5b extracellular domain (zefn-A5^ECD), Flag-His8-tagged (zebrafish (Danio rerio), UniProt P79728 21-204); assay: BLI; BLItz, zefn-A5^ECD (140 μM) immobilised on Ni-NTA biosensor; SEC buffer with 0.5% Tween-20; 2 min association, 3 min dissociation; Kd from plateau values, one-site total binding model; conditions: both partners purified
T2 construct: ephrin-A5b, zebrafish, extracellular domain, residues 21-204 of NCBI NP_571101.1; thrombin cleavage site between the tags and the protein (pK503.9 vector); also called Danio rerio efn-A5b; efn-A5b; not shown: Flag, N-terminal, kept; His8, N-terminal, kept
T2 sequence (looked up): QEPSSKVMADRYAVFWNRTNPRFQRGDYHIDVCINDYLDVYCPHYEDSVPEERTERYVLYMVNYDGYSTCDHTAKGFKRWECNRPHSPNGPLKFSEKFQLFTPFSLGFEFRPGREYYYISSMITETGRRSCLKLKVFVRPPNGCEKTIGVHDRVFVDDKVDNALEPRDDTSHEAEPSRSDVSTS

Sequence of EphA4 LBD (Homo sapiens) (P54764 30-209): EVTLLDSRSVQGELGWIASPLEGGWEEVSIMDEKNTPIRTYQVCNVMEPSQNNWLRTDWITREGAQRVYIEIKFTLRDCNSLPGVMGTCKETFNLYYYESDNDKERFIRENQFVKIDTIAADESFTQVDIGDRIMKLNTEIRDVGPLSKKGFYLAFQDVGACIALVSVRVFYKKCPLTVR
Sequence of EphA3-Fc (Mus musculus) (P29319 21-540): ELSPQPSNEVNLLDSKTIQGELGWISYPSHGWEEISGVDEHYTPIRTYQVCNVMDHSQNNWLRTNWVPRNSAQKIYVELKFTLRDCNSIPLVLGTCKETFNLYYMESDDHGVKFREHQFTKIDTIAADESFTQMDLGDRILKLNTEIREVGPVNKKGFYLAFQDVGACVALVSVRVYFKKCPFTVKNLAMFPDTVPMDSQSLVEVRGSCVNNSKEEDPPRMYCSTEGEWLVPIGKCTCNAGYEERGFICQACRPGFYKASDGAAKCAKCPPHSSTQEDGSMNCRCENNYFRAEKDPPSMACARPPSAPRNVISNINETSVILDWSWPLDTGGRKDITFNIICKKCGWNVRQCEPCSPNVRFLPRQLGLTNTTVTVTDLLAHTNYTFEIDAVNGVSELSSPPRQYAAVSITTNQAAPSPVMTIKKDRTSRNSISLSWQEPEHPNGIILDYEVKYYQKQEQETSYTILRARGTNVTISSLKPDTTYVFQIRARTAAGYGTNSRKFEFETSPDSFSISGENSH

Molecule: ephrinA5 ECD (from UniProt P52803)
- Kd [1]: 0.36 µM

Molecule: ephrinA5 ECD (from UniProt O08543)
- Kd [2]: 0.008 µM

B1: zebrafish RET extracellular domain (zRET^ECD), Flag-His8-tagged (domain or fragment, zebrafish (Danio rerio), UniProt A8E7C6 22-626, looked up)
chain: GLYFPQRLYTENIYVGQQQGSPLLQVISMREFPTERPYFFLCSHRDAFTSWFHIDEASGVLYLNKTLEWSDFSSLRSGSVRSPKDLTLKVGVSSTPPMKVMCTILPTVEVKLSFINDTAPSCGQVELSTLCFPEKISNPHITENREPGALRQLRRFTHMSICPNYTISYGVVAGSSVPFAVDDSTSELVVTAQVDREEKEVYHLDIVCMVRTERNLEEVFRSLHVNIYDEDDNSPYVNGTDTEDVLVEFDRSEGTVFGTLFVYDRDTTPVYPTNQVQNKLVGTLMTNDSWIKNNFAIEHKFREEKAIFGNVRGTVHEYKLKLSQNLSVTEQRSFLLGYLVNDTTFPGPEGTVLLHFNVTVLPVPIRFSNVTYSFTVSQKATTYSQIGKVCVENCQKFKGIDVTYQLEIVDRNITAEAQSCYWAVSLAQNPNDNTGVLYVNDTKVLRRPECQELEYVVIAQEQQNKLQAKTQLTVSFQGEADSLKTDEPRFPACAEKRQRGDCEATRGLGAPTGRCQWRQGRDKGISKRYSTCSPNLGTCPDGYCDAIESKNISICPQDCSSEAIIGGYERDLYGIKAGHGTCYCFEGKCFCERDEPEDDICNDMC
notes: RET receptor tyrosine kinase, zebrafish, extracellular domain, residues 22-626 of NCBI NP_858048.2; thrombin cleavage site after the tags (pK503.9 vector); A mixture of monomer, dimer and some higher oligomers by native PAGE; not shown: Flag, N-terminal, kept; His8, N-terminal, kept
- stoichiometry N [3]: ~1 zRET^ECD per zGFRα1^ECD (ternary complex with zGDNF)

B2: mouse EphA4 ligand-binding domain with C-terminal human IgG1 hinge and Fc (mEphA4^LBD) (Fc fusion, mouse (Mus musculus), UniProt Q03137-1 29-210, looked up)
chain: NEVTLLDSRSVQGELGWIASPLEGGWEEVSIMDEKNTPIRTYQVCNVMEASQNNWLRTDWITREGAQRVYIEIKFTLRDCNSLPGVMGTCKETFNLYYYESDNDKERFIRESQFGKIDTIAADESFTQVDIGDRIMKLNTEIRDVGPLSKKGFYLAFQDVGACIALVSVRVFYKKCPLTVRN
notes: concentrations were calculated for the monomeric form. pMA152a vector; also called Mus musculus EphA4; source: Hi5 insect cells, purified (Protein-A Sepharose); not shown: Fc (human IgG1, with hinge region), C-terminal, kept
- Kd [4]: 0.18 ± 0.01 µM

B3: mature zebrafish glial cell-derived neurotrophic factor (zGDNF), N-terminal Flag tag (ligand, zebrafish (Danio rerio), UniProt Q98TU0 90-235, looked up)
chain: SSDVEPQMKRDRVRQKAAANTEKSGGRGRGERKRSRGRARSRDDRVKGQGRGCLLKEIHLNVTDLDLGYRTKEELIFRYCSGPCHDAETNYDKILNNLTHNKKLDKDTPSRTCCRPIAFDDDISFLDDSLEYHTLKKHSAKKCACV
notes: GDNF, zebrafish, mature zGDNF, residues 90-236 of NCBI NP_571807.1; Written as zGDNF2 (dimer) in the complexes; concentrations were calculated for the monomeric form; also called zGDNF2; source: Hi5 insect cells (baculovirus), secreted, purified as previously described [24]; not shown: Flag, N-terminal, kept
- stoichiometry N [3]: 1 zGDNF per zGFRα1^ECD (2:2, binary complex) and ~2 zGDNF per zGFRα1^ECD (ternary complex with zRET^ECD)
